Measured values reported in the supplement of paper PMC10724198.
± gives the standard deviation of the averaged measurements.

Tested on: Saccharomyces cerevisiae
Experiment: protein stability index of tFT-peptide fusion (C-terminal peptide) (PSI (0-1 scale)); higher = more stable (slower turnover)
Conditions: genetic background: wild type; temperature: 30 C
Method: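 Multiplexed protein stability (MPS) profiling in S. cerevisiae. Random 12-aa peptides (tFT-X12 library) are fused to the C-terminus of a sfGFP-mCherry tandem fluorescent timer, after mCherry and a GGGS linker. Cells are FACS-sorted into 8 mCherry/sfGFP bins and deep-sequenced. The protein stability index (PSI) is the read-weighted bin average, scaled from 0 (unstable) to 1 (stable). Only peptides with >10 reads are reported; cells were grown at 30 °C in SC-His with glucose.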
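Further: PSI is a weighted mean of sequencing reads over stability bins, variants kept only with over 10 reads, mCherry proximal and sfGFP distal, peptide attached via GGGS linker.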

## AGGAGWGLVLGC
  protein stability index: 0.647 ± 0.082

## GGGGGGGGYLGA
  protein stability index: 0.715 ± 0.027

## WSLGPDVCGGVV
  protein stability index: 0.708 ± 0.027

## PPAPSPPPLPAA
  protein stability index: 0.665 ± 0.031

## PLRDIRSVRYSS
  protein stability index: 0.685 ± 0.053

## LGSVLSLVRFGR
  protein stability index: 0.677 ± 0.016

## VPGFCYKERAVV
  protein stability index: 0.673 ± 0.034

## KKQKPKVTSTKT
  protein stability index: 0.712 ± 0.037

## GGGWGGGGSSCA
  protein stability index: 0.659 ± 0.055

## RLAVQCVCQIGI
  protein stability index: 0.621 ± 0.019

## SVHTQLSPMDTT
  protein stability index: 0.64 ± 0.018

## ACVPGGFVWGGV
  protein stability index: 0.754 ± 0.065

## VSGGGWDSCLSV
  protein stability index: 0.724 ± 0.0082

## GCARLPALCCMF
  protein stability index: 0.694 ± 0.039

## RADIRYCNCRGQ
  protein stability index: 0.607 ± 0.045

## PPPPPRPSPHPP
  protein stability index: 0.62 ± 0.058

## GCGMCDPRCEHY
  protein stability index: 0.743 ± 0.083

## GFPGLFCGPVRF
  protein stability index: 0.742 ± 0.054

## VNVCIAEYGNDR
  protein stability index: 0.768 ± 0.062

## PPPPRLPLDPPL
  protein stability index: 0.658 ± 0.041

## CTSCDQRLQRWG
  protein stability index: 0.728 ± 0.033

## DWKLPRIEREST
  protein stability index: 0.678 ± 0.024

## AFLVGYSGVGYV
  protein stability index: 0.687 ± 0.032

## TCDGSCRRGDLR
  protein stability index: 0.663 ± 0.066

## SNCARGNREFYW
  protein stability index: 0.733 ± 0.058

## PSGGRGSRWWGV
  protein stability index: 0.7348 ± 0.006

## PTPHLHPTSLPG
  protein stability index: 0.724 ± 0.1

## GAVRAVAGGGAR
  protein stability index: 0.711 ± 0.067

## RQCAACLGNPST
  protein stability index: 0.665 ± 0.1

## CVGPGGACVRSG
  protein stability index: 0.6894 ± 0.0017

## GRRLGREWGDAP
  protein stability index: 0.721 ± 0.12

## AQRRHGRSIRRD
  protein stability index: 0.787 ± 0.019

## GFSRELTLARLI
  protein stability index: 0.613 ± 0.017

## KNNKIKHIKVKN
  protein stability index: 0.679 ± 0.017

## VCGGVWGGDNGG
  protein stability index: 0.771 ± 0.049

## WARDLGAVAVQT
  protein stability index: 0.518 ± 0.075

## PASLPPSPPLLL
  protein stability index: 0.696 ± 0.039

## PLPLPTPPAFLS
  protein stability index: 0.707 ± 0.08

## FCSDRPWGPCRR
  protein stability index: 0.579 ± 0.08

## RQGGTMVRLLGY
  protein stability index: 0.651 ± 0.089

## PPPDTPSPPSSL
  protein stability index: 0.668 ± 0.026

## GLDNNKCTEKKI
  protein stability index: 0.665 ± 0.13

## AYFGSCCCLPLG
  protein stability index: 0.69 ± 0.039

## SLPRPPVPLLPS
  protein stability index: 0.707 ± 0.017

## FLRGSSKSISAR
  protein stability index: 0.677 ± 0.061

## KQHWIDDRNRIE
  protein stability index: 0.716 ± 0.065

## RSVWVGGVTNLG
  protein stability index: 0.657 ± 0.063

## PSVRRLPARRRT
  protein stability index: 0.626 ± 0.066

## STSLLTRTSSKL
  protein stability index: 0.792 ± 0.015

## RFCRAFSGALSR
  protein stability index: 0.805 ± 0.021

## FVFSGLSGDFRG
  protein stability index: 0.649 ± 0.054

## LLLASSHAPYLH
  protein stability index: 0.77 ± 0.021

## DGECVLGVFVGA
  protein stability index: 0.706 ± 0.045

## LLKQDNSVLSEL
  protein stability index: 0.63 ± 0.07

## KHTKRIRLYKTK
  protein stability index: 0.7831 ± 0.0034

## LSRWGKTKGKKW
  protein stability index: 0.62 ± 0.014

## PPDLPTRSPDNP
  protein stability index: 0.658 ± 0.04

## LLGKVAYFFMFG
  protein stability index: 0.631 ± 0.025

## PPYSLLFHPFPF
  protein stability index: 0.699 ± 0.018

## ICVSGALMARAL
  protein stability index: 0.6798 ± 0.0036

## PSPLPLSPLPFS
  protein stability index: 0.687 ± 0.04

## IVPVCFVTDQHA
  protein stability index: 0.6605 ± 0.00071

## TAYRFYSYESSF
  protein stability index: 0.678 ± 0.082

## YLDTVALLSRVL
  protein stability index: 0.569 ± 0.027

## KKKKKKTNKKKE
  protein stability index: 0.758 ± 0.065

## PRALCPSSPPSR
  protein stability index: 0.764 ± 0.12

## GRDCSSHFIVPL
  protein stability index: 0.713 ± 0.029

## IKACGLRSFIKS
  protein stability index: 0.69 ± 0.059

## SFEFSSRVFSLD
  protein stability index: 0.714 ± 0.055

## LGGWWVSRVGEP
  protein stability index: 0.732 ± 0.037

## PHLHLPPPPISA
  protein stability index: 0.5857 ± 0.00069

## RLPHCLRPPLSP
  protein stability index: 0.669 ± 0.069

## RGGGWVLEVLLG
  protein stability index: 0.5195 ± 0.0024

## SSLTCLLFPPGY
  protein stability index: 0.695 ± 0.012

## INPKSGIVVKFR
  protein stability index: 0.679 ± 0.04

## PSRSPPPLPAPH
  protein stability index: 0.69 ± 0.011

## LHMVSCFLCSLW
  protein stability index: 0.564 ± 0.018

## QKIIKKIQTIVD
  protein stability index: 0.697 ± 0.027

## FVLARLTYSILI
  protein stability index: 0.482 ± 0.047

## EIKKNQKRKFDG
  protein stability index: 0.66 ± 0.041

## SISYSNLPSLFF
  protein stability index: 0.75 ± 0.051

## WGWGGHGIVRRE
  protein stability index: 0.812 ± 0.14

## KLKIDKKKNTFE
  protein stability index: 0.728 ± 0.047

## IPVGTVGTLNAA
  protein stability index: 0.66 ± 0.057

## TGRWRWMRDLLS
  protein stability index: 0.63 ± 0.032

## SLQRLALLRGPP
  protein stability index: 0.736 ± 0.05

## PIQYMLRSSMPR
  protein stability index: 0.688 ± 0.065

## GTLDTDAGTINH
  protein stability index: 0.683 ± 0.025

## SSSPFVSDFLTL
  protein stability index: 0.673 ± 0.042

## CYVCVDVCKRGC
  protein stability index: 0.535 ± 0.18

## RASPTTILCKRQ
  protein stability index: 0.678 ± 0.025

## GFTGWGRRWLGG
  protein stability index: 0.713 ± 0.059

## RNERNAKAKNEK
  protein stability index: 0.649 ± 0.012

## RADLLQRGGDRI
  protein stability index: 0.677 ± 0.093

## YYLQPTCLCFWE
  protein stability index: 0.698 ± 0.0041

## GFTGGGRRWLGG
  protein stability index: 0.713 ± 0.056

## GMRRGGGWCRGW
  protein stability index: 0.674 ± 0.027

## SKFNSLNNHRKG
  protein stability index: 0.655 ± 0.033
